Reference: patent US20240132578A1

What was measured:
Assay in all cases: cell-based or functional assay
[1] = target: HIV-1 Env of isolate JRCSF (HIV-1) (UniProt P20871)
[2] = target: HIV-1 Env of isolate 93IN905 (HIV-1)
[3] = target: HIV-1 Env of isolate 92UG031 (pseudovirus) (HIV-1)
[4] = target: HIV-1 Env of isolate MGRM-Chronic-B-011 (HIV-1)
[5] = target: HIV-1 Env of isolate PVO.4 (HIV-1)
[6] = target: HIV-1 Env of isolate 97ZA012 (HIV-1)
[7] = target: HIV-1 Env of isolate TRO.11 (HIV-1)
[8] = target: HIV-1 Env of isolate MGRM-Chronic-B-012 (HIV-1)
[9] = target: HIV-1 Env of isolate 93MW959 (HIV-1)
[10] = target: HIV-1 Env of isolate MGRM-AE-006 (pseudovirus) (HIV-1)
[11] = target: HIV-1 Env of isolate MGRM-Chronic-B-017 (HIV-1)
[12] = target: HIV-1 Env of isolate MGRM-AE-004 (pseudovirus) (HIV-1)
[13] = target: HIV-1 Env of isolate 93UG077 (pseudovirus) (HIV-1)
[14] = target: HIV-1 Env of isolate MGRM-Chronic-B-024 (HIV-1)
[15] = target: HIV-1 Env of isolate NL43 (HIV-1)
[16] = target: HIV-1 Env of isolate SF162 (HIV-1) (UniProt P19550)
[17] = target: HIV-1 Env of isolate 92WR020 (pseudovirus) (HIV-1)
[18] = target: HIV-1 Env of pseudovirus isolate MGRM-Chronic-B-004 (clade B) (HIV-1)
[19] = target: HIV-1 Env of isolate 98IN022 (HIV-1)
[20] = target: HIV-1 Env of isolate QH0692.42 (HIV-1)
[21] = target: HIV-1 Env of isolate 93WR029 (pseudovirus) (HIV-1)
[22] = target: HIV-1 Env of isolate 92UG037 (pseudovirus) (HIV-1)
[23] = target: HIV-1 Env of isolate 92WR021 (pseudovirus) (HIV-1)
[24] = target: HIV-1 Env of isolate MG RM-A-009 (pseudovirus) (HIV-1)
[25] = target: HIV-1 Env of isolate VLGCB3 (HIV-1)
[26] = target: HIV-1 Env of isolate MGRM-Chronic-B-018 (HIV-1)
[27] = target: HIV-1 Env of isolate TRJ04551.58 (HIV-1)
[28] = target: HIV-1 Env of isolate MGRM-Chronic-B-020 (HIV-1)
[29] = target: HIV-1 Env of pseudovirus MGRM-F1-004 (HIV-1)
[30] = target: HIV-1 Env of isolate THR0.18 (HIV-1)
[31] = target: HIV-1 Env of pseudovirus isolate APV-13 (clade B) (HIV-1)
[32] = target: HIV-1 Env of isolate SC422661.8 (HIV-1)
[33] = target: HIV-1 Env of isolate 94UG103 (pseudovirus) (HIV-1)
[34] = target: HIV-1 Env of isolate MGRM-Chronic-B-023 (HIV-1)
[35] = target: HIV-1 Env of isolate 92WR024 (pseudovirus) (HIV-1)
[36] = target: HIV-1 Env of isolate MGRM-Chronic-B-010 (HIV-1)
[37] = target: HIV-1 Env of isolate MGRM-AE-005 (pseudovirus) (HIV-1)

Substance: VRC01 (antibody)
- IC50, pseudovirus neutralization [1]: 0.164 µg/mL
- IC50, pseudovirus neutralization [2]: 0.138 µg/mL
- IC50 (µg/mL), single-round pseudovirus neutralization [3]: 0.469 µg/mL
- IC50, pseudovirus neutralization [4]: 0.587 µg/mL
- IC50, pseudovirus neutralization [5]: 0.218 µg/mL
- IC50, pseudovirus neutralization [6]: 0.088 µg/mL
- IC50, pseudovirus neutralization [7]: 0.186 µg/mL
- IC50, pseudovirus neutralization [8]: 1.03 µg/mL
- IC50, pseudovirus neutralization [9]: 0.053 µg/mL
- IC50 (µg/mL), single-round pseudovirus neutralization [10]: 4.65 µg/mL
- IC50, pseudovirus neutralization [11]: 0.141 µg/mL
- IC50 (µg/mL), single-round pseudovirus neutralization [12]: 0.187 µg/mL
- IC50 (µg/mL), single-round pseudovirus neutralization [13]: 0.097 µg/mL
- IC50, pseudovirus neutralization [14]: 0.377 µg/mL
- IC50, pseudovirus neutralization [15]: 0.1 µg/mL
- IC50, pseudovirus neutralization [16]: 0.421 µg/mL
- IC50 (µg/mL), single-round pseudovirus neutralization [17]: 0.13 µg/mL
- IC50, pseudovirus neutralization [18]: 0.055 µg/mL
- IC50, pseudovirus neutralization [19]: 0.342 µg/mL
- IC50, pseudovirus neutralization [20]: 1.19 µg/mL
- IC50 (µg/mL), single-round pseudovirus neutralization [21]: 1.57 µg/mL
- IC50 (µg/mL), single-round pseudovirus neutralization [22]: 0.245 µg/mL
- IC50 (µg/mL), single-round pseudovirus neutralization [23]: 0.066 µg/mL
- IC50 (µg/mL), single-round pseudovirus neutralization [24]: 0.118 µg/mL
- IC50, pseudovirus neutralization [25]: 0.108 µg/mL
- IC50, pseudovirus neutralization [26]: 0.328 µg/mL
- IC50, pseudovirus neutralization [27]: 0.06 µg/mL
- IC50, pseudovirus neutralization [28]: 0.424 µg/mL
- IC50, pseudovirus neutralization [29]: 0.305 µg/mL
- IC50, pseudovirus neutralization [30]: 2.46 µg/mL
- IC50, pseudovirus neutralization [31]: 0.657 µg/mL
- IC50, pseudovirus neutralization [32]: 0.179 µg/mL
- IC50 (µg/mL), single-round pseudovirus neutralization [33]: 0.285 µg/mL
- IC50, pseudovirus neutralization [34]: 0.275 µg/mL
- IC50 (µg/mL), single-round pseudovirus neutralization [35]: 0.327 µg/mL
- IC50, pseudovirus neutralization [36]: 0.156 µg/mL
- IC50 (µg/mL), single-round pseudovirus neutralization [37]: 0.029 µg/mL
